The record followed here is patent publication US11795460B2, “Compositions and methods for TTR gene editing and treating ATTR amyloidosis” (Intellia Therapeutics, Inc., priority 2017, dated 2023).

Strand notation (5' to 3'): a small letter for the sugar, then the base; units joined by * are phosphorothioate-linked, units joined directly phosphodiester-linked; [ ] holds rarer units or linkages, { } end groups; capitals alone tell only the bases. m = 2'-O-methyl; r = 2'-OH (RNA)

One data set deals with TTR. The experiment in a line: EC50 and maximum editing in primary cyno hepatocytes treated with LNP formulated U-depleted Spy Cas9 mRNA and sgRNAs (Tables 20, 22). More on the design: key: % of sequence reads with indels or substitutions over total reads. The format is cell-based, cynomolgus monkey. Particulars: Table 20, LNP with U-depleted Spy Cas9 mRNA and human specific sgRNAs, dose response. The gist of the method: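 Primary cyno hepatocytes plated 24 h before treatment with cross-flow LNPs (PD-10 purified) carrying U-depleted Spy Cas9 mRNA and sgRNA, preincubated 5 min in maintenance medium with 6% cyno serum; 8-point 3-fold dose series from 300 ng mRNA. Cells lysed 72 h later; editing = indel/substitution reads over total reads by amplicon MiSeq sequencing.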

A further data set concerns TTR mRNA. Put plainly: TTR mRNA knockdown in primary human hepatocytes by quantitative PCR (Tables 34, 35). Conditions: TTR mRNA in PHH; LNP dose 300 ng mRNA cargo; gRNA:mRNA 1:2; 96 hours after treatment; biological triplicates; vs untreated control. The data set is classed as cell-based. The procedure: In one experiment, PHH were cultured and treated with LNPs comprising Cas9 mRNA (SEQ ID NO:1) and a gRNA of interest (See FIG. 29, Table 34), as described in Example 4. The LNPs were prepared using the cross-flow procedure described above and purified and concentrated using PD-10 columns and Amicon centrifugal filter units, respectively. The LNPs were formulated with an N:P ratio of 6.0 and contained Lipid A, Cholesterol, DSPC, and PEG2k-DMG in a 50:38:9:2 molar ratio, respectively. The LNPs comprised a gRNA:mRNA ratio of 1:2, and the cells were treated at a dose of 300 ng (with respect to the amount of mRNA cargo delivered).
(§1) Ninety-six (96) hours following LNP treatment (with biological triplicates for each condition), mRNA was purified from PHH cells using the Dynabeads mRNA DIRECT Kit (ThermoFisher Scientific) according to the manufacturer's protocol. Reverse Transcription (RT) was performed with Maxima reverse transcriptase (ThermoFisher Scientific) and a poly-dT primer. The resulting cDNA was purified with Ampure XP Beads (Agencourt). For Quantitative PCR, 2% of the purified cDNA was amplified with Taqman Fast Advanced Mastermix and 3 Taqman probe sets, TTR (Assay ID: Hs00174914_m1), GAPDH (Assay ID: Hs02786624_g1), and PPIB (Assay ID: Hs00168719_m1). The assays were run on the QuantStudio 7 Flex Real Time PCR System according to the manufacturer's instructions (Life Technologies). Relative expression of TTR mRNA was calculated by normalizing to the endogenous controls (GAPDH and PPIB) individually, and then averaged.
In a separate experiment, TTR mRNA knockdown was evaluated following treatment with LNPs comprising G000480, G000486, and G000502. The LNPs were formulated and PHH were cultured and treated with the LNPs, each as described in the experiment above in this Example with the exception that the cells were treated at a dose of 100 ng (with respect to the amount of mRNA cargo delivered).
as §1, with “(single treatment” for “(with biological triplicates”, “the High Capacity cDNA Reverse Transcription Kit” for “Maxima reverse transcriptase”, “according to the manufacturer's instructions.” for “and a poly-dT primer. The resulting cDNA was purified with Ampure XP Beads (Agencourt).”, “the” for “the purified”

B1: G000493: TTR sgRNA modified sequence, Human, SEQ ID No. 100; guide sequence of CR003368 (nucleic acid)
guide: mA*mA*mG*rUrGrCrCrUrUrCrCrArGrUrArArGrArUrUrGrUrUrUrUrArGrAmGmCmUmAmGmAmAmAmUmAmGmCrArArGrUrUrArArArArUrArArGrGrCrUrArGrUrCrCrGrUrUrArUrCrAmAmCmUmUmGmAmAmAmAmAmGmUmGmGmCmAmCmCmGmAmGmUmCmGmGmUmGmCmU*mU*mU*mU
As to B1, in the data set with TTR, the “Max Editing” value worked out at 61.15. Moreover, the “Avg % Knockdown” value in the data set on TTR mRNA is reported as 87.53%.

B2: G000490: TTR sgRNA modified sequence, Human, SEQ ID No. 97; guide sequence of CR003366 (nucleic acid)
guide: mA*mA*mA*rUrArGrArCrArCrCrArArArUrCrUrUrArCrGrUrUrUrUrArGrAmGmCmUmAmGmAmAmAmUmAmGmCrArArGrUrUrArArArArUrArArGrGrCrUrArGrUrCrCrGrUrUrArUrCrAmAmCmUmUmGmAmAmAmAmAmGmUmGmGmCmAmCmCmGmAmGmUmCmGmGmUmGmCmU*mU*mU*mU
As to B2, the “Max Editing” value in the data set with TTR came to 90.76. Besides, in the data set on TTR mRNA, the “Avg % Knockdown” value came to 78.34%.

B3: G000572: TTR sgRNA modified sequence, Human, SEQ ID No. 113; guide sequence of CR003385 (nucleic acid)
guide: mC*mC*mC*rCrUrArCrUrCrCrUrArUrUrCrCrArCrCrArGrUrUrUrUrArGrAmGmCmUmAmGmAmAmAmUmAmGmCrArArGrUrUrArArArArUrArArGrGrCrUrArGrUrCrCrGrUrUrArUrCrAmAmCmUmUmGmAmAmAmAmAmGmUmGmGmCmAmCmCmGmAmGmUmCmGmGmUmGmCmU*mU*mU*mU
With B3, in the data set with TTR, the “Max Editing” value turned out to be 100.31. In addition, in the data set on TTR mRNA, the “Avg % Knockdown” value came out at 55.92%.

B4: G000571: TTR sgRNA modified sequence, Human, SEQ ID No. 112; guide sequence of CR005301 (nucleic acid)
guide: mG*mU*mC*rArCrArGrArArArCrArCrUrCrArCrCrGrUrGrUrUrUrUrArGrAmGmCmUmAmGmAmAmAmUmAmGmCrArArGrUrUrArArArArUrArArGrGrCrUrArGrUrCrCrGrUrUrArUrCrAmAmCmUmUmGmAmAmAmAmAmGmUmGmGmCmAmCmCmGmAmGmUmCmGmGmUmGmCmU*mU*mU*mU
For the molecule B4, the “Max Editing” value with TTR amounted to 97.03. The “Avg % Knockdown” value with TTR mRNA was determined as 96.17%.

B5: G000500: TTR sgRNA modified sequence, Human, SEQ ID No. 107; guide sequence of CR003337 (nucleic acid)
guide: mC*mC*mA*rGrUrCrCrArGrCrArArGrGrCrArGrArGrGrGrUrUrUrUrArGrAmGmCmUmAmGmAmAmAmUmAmGmCrArArGrUrUrArArArArUrArArGrGrCrUrArGrUrCrCrGrUrUrArUrCrAmAmCmUmUmGmAmAmAmAmAmGmUmGmGmCmAmCmCmGmAmGmUmCmGmGmUmGmCmU*mU*mU*mU
B5: the “Max Editing” value in the data set on TTR was determined as 58.04. In addition, in the data set with TTR mRNA, the “Avg % Knockdown” value is given as 92.90%.

B6: G000570: TTR sgRNA modified sequence, Human, SEQ ID No. 111; guide sequence of CR003347 (nucleic acid)
guide: mC*mA*mU*rUrGrArUrGrGrCrArGrGrArCrUrGrCrCrUrGrUrUrUrUrArGrAmGmCmUmAmGmAmAmAmUmAmGmCrArArGrUrUrArArArArUrArArGrGrCrUrArGrUrCrCrGrUrUrArUrCrAmAmCmUmUmGmAmAmAmAmAmGmUmGmGmCmAmCmCmGmAmGmUmCmGmGmUmGmCmU*mU*mU*mU
Consider B6, for which, in the data set on TTR, the “Max Editing” value amounted to 96.73. The “Avg % Knockdown” value with TTR mRNA is reported as 93.38%.

B7: G000567: TTR sgRNA modified sequence, Human, SEQ ID No. 109; guide sequence of CR003352 (nucleic acid)
guide: mG*mA*mA*rArGrGrCrUrGrCrUrGrArUrGrArCrArCrCrGrUrUrUrUrArGrAmGmCmUmAmGmAmAmAmUmAmGmCrArArGrUrUrArArArArUrArArGrGrCrUrArGrUrCrCrGrUrUrArUrCrAmAmCmUmUmGmAmAmAmAmAmGmUmGmGmCmAmCmCmGmAmGmUmCmGmGmUmGmCmU*mU*mU*mU
Turning to B7, the “Max Editing” value in the data set with TTR is 97.06. Also, the “Avg % Knockdown” value in the data set on TTR mRNA is listed as 90.89%.

B8: G000568: TTR sgRNA modified sequence, Human, SEQ ID No. 110; guide sequence of CR003391 (nucleic acid)
guide: mG*mG*mC*rUrGrUrCrGrUrCrArCrCrArArUrCrCrCrArGrUrUrUrUrArGrAmGmCmUmAmGmAmAmAmUmAmGmCrArArGrUrUrArArArArUrArArGrGrCrUrArGrUrCrCrGrUrUrArUrCrAmAmCmUmUmGmAmAmAmAmAmGmUmGmGmCmAmCmCmGmAmGmUmCmGmGmUmGmCmU*mU*mU*mU
Turning to B8, the “Max Editing” value in the data set on TTR was 87.93. Further, in the data set on TTR mRNA, the “Avg % Knockdown” value came out at 53.44%.
